Laboratory results: patent US20220412967A1, “METHOD FOR CAPTURING CANDIDATE SUBSTANCE THAT CAN BIND TO COMPLEX OF MR1 PROTEIN AND BETA2 MICROGLOBULIN PROTEIN, METHOD FOR PRODUCING CANDIDATE SUBSTANCE THAT CAN BIND TO COMPLEX OF MR1 PROTEIN AND BETA2 MICROGLOBULIN PROTEIN, AND METHOD FOR PRODUCING LIGAND CANDIDATE SUBSTANCE FOR MAIT CELL” (OSAKA UNIVERSITY, priority 2019, published 2022)

B1: soluble mouse β2 microglobulin protein (other)
b2m: IQKTPQIQVYSRHPPENGKPNILNCYVTQFHPPHIEIQMLKNGKKIPKVEMSDMSFSKDWSFYILAHTEFTPTETDTYACRVKHASMAEPKTVYWDRDM
notes: Recombinant from Escherichia coli; also called soluble mβ2m

How the values were obtained:
[1] = biological target: T1, complex of soluble mMR1A, soluble mβ2m and Ac6FP (Mus musculus, UniProt Q8HWB0); assay: Thermodynamic stability of the complex (Tycho NT.6, F350/F330, 37 to 95° C.); type: physicochemical; conditions: for melting point (inflection point of curve) of the complex: FIG. 1B
T1 construct: made in house
Excerpt: When a MR1 protein, a β2 protein, and Ac6FP form a complex to form a normal folding, tryptophan in the protein can be measured at an absorbance of 330 nm. On the other hand, when the complex is heat treated and the complex is denatured, tryptophan in the protein is exposed by the thermal denaturation, and the tryptophan can be measured at an absorbance of 350 nm.
After mixing the soluble mMR1A and the soluble mβ2m obtained in Example 1 (1), Ac6FP (Cat. No.: 11.418, manufactured by Schircks Laboratories Co., Ltd.) was further added to the obtained mixed solution to form the complex in a buffer solution (reaction system of complex). The composition of the buffer was as follows: 100 mmol/l Tris-HCl (pH 8.1), 2 mmol/l EDTA (pH 8.1), 400 mmol/l L-Arginine, and 5 mol/1 Urea, and the pH was set to 8.1. In the reaction system of 250 ml of complex, the concentration of the soluble mMR1A was 30 μg/ml (total amount: 7.5 mg), the concentration of the soluble mβ2m was 30 μg/ml (total amount: 7.5 mg), and the concentration of Ac6FP was 8 μg/ml (total amount: 2 mg). The reaction temperature of the reaction system of the complex was set at 4° C., and the reaction time was set at 9 hours.
Sodium cyanoborohydride (NaBH3CN) was added to the obtained complex (0.01 mg/ml), so as to have a predetermined concentration (0, 0.005, 0.05, 0.5, or 5 mmol/1) and subjected to the reduction treatment at 4° C. for 5 minutes. Note that the pH in the reaction solution of the reduction reaction was set to about 7.2.
8 to 10 μl of a sample containing the complex after the reduction treatment was collected in a capillary and set to Tycho™ NT.6. The temperature was then increased to 37 to 95° C., and the thermodynamic stability of the complex was calculated from the melting point (an inflection point of curve).
FIGS. 1A and 1B are graphs of the thermodynamic stability of the complex. In FIGS. 1A and 1B, the horizontal axis indicates the temperature, and the vertical axis indicates the ratio of the absorbance at 350 nm (F350) to the absorbance at 330 nm (F330) (F350/F330). […]

[2] = biological target: T2, soluble murine MR1 protein isoform A (mouse, UniProt Q8HWB0 19-288); assay: refolding of E. coli proteins with the small-molecule ligand Ac6FP; complex then purified by anion exchange and gel filtration chromatography
T2 construct: also called soluble mMR1A; mMR1
Experimental: After the dialysis, the obtained sample was subjected to anion exchange chromatography under the purification condition 1 below to purify a crude purified product including the complex. After the start of the purification, the resultant was fractionated at 1 ml/fraction, and five fractions between 6 to 7 minutes from the start of purification were collected as fractions of the crude purified product.
Analytical instrument: AKTA pure25 (manufactured by GE Healthcare) Column: POROS™ HQ (manufactured by Applied Biosystems) [0108] […] 0 min: (A:B=100:0) [0111] 7.9 min: (A:B=50:50) Flow rate: 5 ml/min Fractionation volume: 1 ml/fraction
The obtained composition was then subjected to gel filtration chromatography under the purification condition 2 below to purify the complex from the crude purified product. After the start of the purification, the resultant was fractionated at 0.5 ml/fraction, and 4 fractions between 13 and 15 minutes from the start of purification were collected as a fraction containing the complex.

T1 sequence (Q8HWB0 19-288, one chain of several): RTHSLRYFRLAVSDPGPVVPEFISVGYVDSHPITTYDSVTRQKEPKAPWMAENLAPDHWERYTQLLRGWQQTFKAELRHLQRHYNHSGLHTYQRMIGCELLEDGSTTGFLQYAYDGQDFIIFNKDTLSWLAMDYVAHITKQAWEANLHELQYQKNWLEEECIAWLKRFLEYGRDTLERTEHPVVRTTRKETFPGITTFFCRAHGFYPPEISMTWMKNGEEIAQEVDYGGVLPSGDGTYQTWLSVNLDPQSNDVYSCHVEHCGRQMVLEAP
T2 sequence (Q8HWB0 19-288): as the sequence (Q8HWB0 19-288, one chain of several) above

Molecule	melting point (inflection point of curve) of the complex ([1]; control not subjected to the reduction treatment (0 mmol/l NaBH3CN))	melting point of the complex versus control not subjected to the reduction treatment ([1]; reduction treatment with NaBH3CN (0.005 to 5 mmol/l), FIG. 1A)	melting point (inflection point of curve) of the complex ([1]; treated with 5 mmol/l of sodium cyanoborohydride, 4° C., 5 minutes, pH about 7.2)	binding result [2]
complex: complex formed from soluble mMR1A (SEQ ID NO: 10), soluble mβ2m (SEQ ID NO: 14) and the ligand Ac6FP	72.2 °C	increased	73.9 °C	–
B1	–	–	–	binds
